Broadly, the stoichiometry N is a count of units in the complex or per binding partner.

One substance from PMC6488028 can be followed below.

The target of this assay is GenB1 (aminotransferase involved in C6'-amination, Micromonospora echinospora) (Micromonospora echinospora). Briefly: crystal structure.

Consider “GenB1 (aminotransferase involved in C6'-amination, Micromonospora echinospora) (enzyme)”, for which the stoichiometry N is 2.
